Measurements from patent publication US9388387B2, “Differentiation of human embryonic stem cells” (Janssen Biotech, Inc., priority 2008, dated 2016).

Test system: cells of the human embryonic stem cell line H1 differentiated to stage 6
Test: Real-time PCR gene expression profile of stage 6 cultures +/- activin A, enriched using a 40 μm filter
Type: cell-based
Settings: 10 ng/ml activin A added at stage 6 for seven days, H1 cells passage 43, FIG. 4 panels a-f
Experimental: (1:30 dilution) coated dishes and exposed to RPMI medium supplemented with 2% BSA (Catalog#152401, MP Biomedical, Ohio), and 100 ng/ml activin A (R&D Systems, MN) plus 20 ng/ml WNT-3a (Catalog#1324-WN-002, R&D Systems, MN) plus 8 ng/ml of bFGF (Catalog#100-18B, PeproTech, NJ), for one day followed by treatment with RPMI media supplemented with 2% BSA and 100 ng/ml activin A plus 8 ng/ml of bFGF for an additional two days. Next the cultures were treated with DMEM/F12+2% BSA+50 ng/ml FGF7+0.25 μM Cyclopamine-KAAD (#239804, Calbiochem, CA) for two days, followed by four days incubation in DMEM/F12+1% B27 (Invitrogen, CA)+50 ng/ml FGF7+0.25 μM Cyclopamine-KAAD+2 μM Retinoic acid (RA) (Sigma, MO)+100 ng/ml of Noggin (R & D Systems, MN).
Cells were differentiated into pancreatic endocrine cells by incubating the cells in DMEM/F12+1% B27 (Invitrogen, CA)+100 ng/ml Noggin+1 μM DAPT (a gamma-secretase inhibitor) (Catalog#565784, Calbiochem, CA)+1 μM ALK5 inhibitor II (Catalog#616452, Calbiochem, Ca)+100 ng/ml of Netrin-4 (R&D Systems, MN) for three days followed by additional seven days incubation in DMEM/F12+1% B27 (Invitrogen, CA)+1 μM ALK5 inhibitor II (Calbiochem, Ca). […] At each stage cell number was calculated using a hemocytometer and RNA was collected for PCR analysis. […]

B1: activin A: a member of the TGF-β superfamily; TGF-β receptor agonist (R&D Systems, MN) (protein, UniProt P08476 311-426, looked up)
Inhibin beta A chain: GLECDGKVNICCKKQFFVSFKDIGWNDWIIAPSGYHANYCEGECPSHIAGTSGSSLSFHSTVINHYRMRGHSPFANLKSCCVPTKLRPMSMLYYDDGQNIIKKDIQNMIVEECGCS
expression of pancreatic endocrine markers (pdx-1, nkx6-1, Pax4, nkx2.2, insulin, glucagon): significantly boosted expression of all key pancreatic endocrine markers
